The source of these data is doi:10.1101/2024.10.04.616749, “Structural basis for a nucleoporin exportin complex between RanBP2, SUMO1-RanGAP1, the E2 Ubc9, Crm1 and the Ran GTPase” (bioRxiv, 2024).

What all share (conditions): both partners purified
The target of assay [1] is T1, Crm1 (full-length human) (human, UniProt O14980 1-1071).
T1 construct: Crm1 (exportin-1), human, full length; also called exportin Crm1; source: E. coli BL21(DE3) SoluBL21 with Codon Plus (RIL) plasmid, purified (Ni-NTA, Ulp1 cleavage, SEC, MonoQ); not shown: His6-Smt3, N-terminal, cleaved
Briefly: SEC; analytical size exclusion chromatography of complexes I, II and III assembled from a RanBP2 variant, SUMO1-RanGAP1, Ubc9, Crm1 and Ran^Q69L(GTP); fractions on SDS-PAGE.

Another assay concerns the target Ran^Q69L(GTP) (human, UniProt P62826 1-216, Q69L). Described as above.
Assay [2] deals with T1, Crm1 (full-length human). Kind of assay: cryo-EM structure; purified RanBP2^RBD4/SUMO1^Q94P-RanGAP1/Ubc9 incubated with excess Crm1 and Ran^Q69L(GTP), gel filtration in 20 mM HEPES pH 7.4, 110 mM potassium acetate, 2 mM magnesium acetate, 1 mM TCEP; lightly crosslinked with 250 uM BS3 for 30 min; 0.1% CHAPSO.

T1 sequence (O14980 whole entry): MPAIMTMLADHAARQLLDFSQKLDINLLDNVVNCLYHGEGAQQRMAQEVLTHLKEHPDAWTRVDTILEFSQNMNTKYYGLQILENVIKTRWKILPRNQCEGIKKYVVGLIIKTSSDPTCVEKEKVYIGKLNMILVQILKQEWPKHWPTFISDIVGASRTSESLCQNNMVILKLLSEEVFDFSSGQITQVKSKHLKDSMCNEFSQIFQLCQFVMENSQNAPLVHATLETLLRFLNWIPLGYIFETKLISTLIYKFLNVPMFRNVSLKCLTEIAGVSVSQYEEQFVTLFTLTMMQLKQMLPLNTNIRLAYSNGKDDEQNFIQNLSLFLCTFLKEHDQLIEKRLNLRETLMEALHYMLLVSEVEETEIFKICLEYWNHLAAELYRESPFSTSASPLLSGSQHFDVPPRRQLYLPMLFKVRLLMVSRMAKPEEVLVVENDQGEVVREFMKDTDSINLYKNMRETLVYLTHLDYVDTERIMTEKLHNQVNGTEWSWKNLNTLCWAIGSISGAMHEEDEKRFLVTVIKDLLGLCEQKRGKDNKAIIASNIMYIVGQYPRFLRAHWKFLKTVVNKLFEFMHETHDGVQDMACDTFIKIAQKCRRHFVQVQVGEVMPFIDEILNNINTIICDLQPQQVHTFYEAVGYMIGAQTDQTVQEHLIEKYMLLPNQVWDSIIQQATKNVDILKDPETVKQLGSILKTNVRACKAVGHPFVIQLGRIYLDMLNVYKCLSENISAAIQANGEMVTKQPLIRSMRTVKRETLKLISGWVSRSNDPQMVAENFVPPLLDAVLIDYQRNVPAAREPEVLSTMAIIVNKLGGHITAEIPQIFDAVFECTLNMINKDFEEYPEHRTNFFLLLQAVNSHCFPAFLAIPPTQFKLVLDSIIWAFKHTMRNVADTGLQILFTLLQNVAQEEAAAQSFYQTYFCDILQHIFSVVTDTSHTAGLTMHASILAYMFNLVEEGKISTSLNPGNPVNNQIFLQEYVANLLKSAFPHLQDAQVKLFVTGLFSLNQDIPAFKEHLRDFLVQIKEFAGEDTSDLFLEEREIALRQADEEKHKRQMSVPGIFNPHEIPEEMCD

B1: RanBP2^2300–2910 (RanBP2^RBD3) (domain or fragment, human, UniProt P49792 2300-2910, looked up)
chain: TQEEERDGQYFEPVVPLPDLVEVSSGEENEQVVFSHRAKLYRYDKDVGQWKERGIGDIKILQNYDNKQVRIVMRRDQVLKLCANHRITPDMTLQNMKGTERVWLWTACDFADGERKVEHLAVRFKLQDVADSFKKIFDEAKTAQEKDSLITPHVSRSSTPRESPCGKIAVAVLEETTRERTDVIQGDDVADATSEVEVSSTSETTPKAVVSPPKFVFGSESVKSIFSSEKSKPFAFGNSSATGSLFGFSFNAPLKSNNSETSSVAQSGSESKVEPKKCELSKNSDIEQSSDSKVKNLFASFPTEESSINYTFKTPEKAKEKKKPEDSPSDDDVLIVYELTPTAEQKALATKLKLPPTFFCYKNRPDYVSEEEEDDEDFETAVKKLNGKLYLDGSEKCRPLEENTADNEKECIIVWEKKPTVEEKAKADTLKLPPTFFCGVCSDTDEDNGNGEDFQSELQKVQEAQKSQTEEITSTTDSVYTGGTEVMVPSFCKSEEPDSITKSISSPSVSSETMDKPVDLSTRKEIDTDSTSQGESKIVSFGFGSSTGLSFADLASSNSGDFAFGSKDKNFQWANTGAAVFGTQSVGTQSAGKVGEDEDGSDEEVVHNEDI
notes: RanBP2 (Nup358), human, residues 2300-2910: contains only RBD3 of the two RBDs; pET28b with a thrombin-cleavable His6 tag; no cleavage is described for the analytical gel filtration runs; source: E. coli BL21(DE3) Codon Plus (RIL), purified (Ni-NTA, SEC)
As to B1, the binding result with Crm1 (full-length human) [1] and with Ran^Q69L(GTP) was “binds” throughout.

B2: RanBP2^2300–3060 (RanBP2^RBD3–4) (domain or fragment, human, UniProt P49792 2300-3060, looked up)
chain: TQEEERDGQYFEPVVPLPDLVEVSSGEENEQVVFSHRAKLYRYDKDVGQWKERGIGDIKILQNYDNKQVRIVMRRDQVLKLCANHRITPDMTLQNMKGTERVWLWTACDFADGERKVEHLAVRFKLQDVADSFKKIFDEAKTAQEKDSLITPHVSRSSTPRESPCGKIAVAVLEETTRERTDVIQGDDVADATSEVEVSSTSETTPKAVVSPPKFVFGSESVKSIFSSEKSKPFAFGNSSATGSLFGFSFNAPLKSNNSETSSVAQSGSESKVEPKKCELSKNSDIEQSSDSKVKNLFASFPTEESSINYTFKTPEKAKEKKKPEDSPSDDDVLIVYELTPTAEQKALATKLKLPPTFFCYKNRPDYVSEEEEDDEDFETAVKKLNGKLYLDGSEKCRPLEENTADNEKECIIVWEKKPTVEEKAKADTLKLPPTFFCGVCSDTDEDNGNGEDFQSELQKVQEAQKSQTEEITSTTDSVYTGGTEVMVPSFCKSEEPDSITKSISSPSVSSETMDKPVDLSTRKEIDTDSTSQGESKIVSFGFGSSTGLSFADLASSNSGDFAFGSKDKNFQWANTGAAVFGTQSVGTQSAGKVGEDEDGSDEEVVHNEDIHFEPIVSLPEVEVKSGEEDEEILFKERAKLYRWDRDVSQWKERGVGDIKILWHTMKNYYRILMRRDQVFKVCANHVITKTMELKPLNVSNNALVWTASDYADGEAKVEQLAVRFKTKEVADCFKKTFEECQQNLMKLQKGHVSLAAELSK
notes: RanBP2 (Nup358), human, residues 2300-3060: RBD3, FG1, IR1-M-IR2, FG2 and RBD4; pET28b with a thrombin-cleavable His6 tag; no cleavage is described for the protein of the analytical gel filtration runs (it was cleaved for the SUMO conjugation assays); source: E. coli BL21(DE3) Codon Plus (RIL), purified (Ni-NTA, SEC)
Turning to B2, the binding result with Crm1 (full-length human) [1] and in the assay with Ran^Q69L(GTP) was “binds” in each case.

B3: RanBP2^2446–3060 (RanBP2^RBD4) (domain or fragment, human, UniProt P49792 2446-3060, looked up)
chain: DSLITPHVSRSSTPRESPCGKIAVAVLEETTRERTDVIQGDDVADATSEVEVSSTSETTPKAVVSPPKFVFGSESVKSIFSSEKSKPFAFGNSSATGSLFGFSFNAPLKSNNSETSSVAQSGSESKVEPKKCELSKNSDIEQSSDSKVKNLFASFPTEESSINYTFKTPEKAKEKKKPEDSPSDDDVLIVYELTPTAEQKALATKLKLPPTFFCYKNRPDYVSEEEEDDEDFETAVKKLNGKLYLDGSEKCRPLEENTADNEKECIIVWEKKPTVEEKAKADTLKLPPTFFCGVCSDTDEDNGNGEDFQSELQKVQEAQKSQTEEITSTTDSVYTGGTEVMVPSFCKSEEPDSITKSISSPSVSSETMDKPVDLSTRKEIDTDSTSQGESKIVSFGFGSSTGLSFADLASSNSGDFAFGSKDKNFQWANTGAAVFGTQSVGTQSAGKVGEDEDGSDEEVVHNEDIHFEPIVSLPEVEVKSGEEDEEILFKERAKLYRWDRDVSQWKERGVGDIKILWHTMKNYYRILMRRDQVFKVCANHVITKTMELKPLNVSNNALVWTASDYADGEAKVEQLAVRFKTKEVADCFKKTFEECQQNLMKLQKGHVSLAAELSK
notes: RanBP2 (Nup358), human, residues 2446-3060: FG1, IR1-M-IR2, FG2 and RBD4; pET28b with a thrombin-cleavable His6 tag; no cleavage is described for the protein used in cryo-EM reconstitutions and analytical gel filtration; also called RanBP2 FG1-IR1-M-IR2-FG2-RBD4 fragment; hRanBP2^RBD4; source: E. coli BL21(DE3) Codon Plus (RIL), purified (Ni-NTA, SEC)
With B3, the binding result with Ran^Q69L(GTP) and with Crm1 (full-length human) [2] was “binds” in each case.
